In article PMC11705820:
Residue numbers refer to the chain shown, from its start.

Legend:
[1] = target: T1, MexR wild-type (Pseudomonas aeruginosa clinical isolate Pae d1 Green) (UniProt P52003); test: EMSA
T1 sequence: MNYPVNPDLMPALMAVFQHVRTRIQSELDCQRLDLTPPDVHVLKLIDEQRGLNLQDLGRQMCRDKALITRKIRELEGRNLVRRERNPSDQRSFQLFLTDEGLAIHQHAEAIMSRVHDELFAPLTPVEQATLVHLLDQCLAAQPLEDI

[2] = target: T2, MexR Gln55Pro Q55P (Pseudomonas aeruginosa clinical isolate Pae d14 Green) (UniProt P52003); test: EMSA
T2 sequence: T1 sequence with Q55P

Sequence: GTTGCATAGCGTTGTCCTCATGAGCGAAAGCGGCCGATGCAGCGTGAAGGCGCTGCACCGGCTCGAAGAAGGCAGGCAAAATACTTACATTCATAGGTGTTTGTAAACGTCCGAAAGCCTCGCGTGAAAACACCTGAAACGTTTTAGCTCGATGGCCGGTTATCCACCCGGCGCCATGGCCCATATTCAGAACCTGAAACAAGGTTGATAAGGTCAACTAAAATAAGCAAAATAGTTGACTGGATCAACCACATTTACATTAGGTTTACTCGGCCAAACCAATGAACTACC (double strand) [mexR-mexAB intergenic region 291 bp]
- binding [1]: binds
- binding [2]: no binding
